Assay [1] has as its target T1, human CACNG1 expressed on cells (human, UniProt Q06432 1-222). The assay is described as follows: cell-based or functional assay.
The target in assay [2] is T2, mouse CACNG1 expressed on cells (mouse, UniProt O70578 1-223).
T2 sequence (looked up): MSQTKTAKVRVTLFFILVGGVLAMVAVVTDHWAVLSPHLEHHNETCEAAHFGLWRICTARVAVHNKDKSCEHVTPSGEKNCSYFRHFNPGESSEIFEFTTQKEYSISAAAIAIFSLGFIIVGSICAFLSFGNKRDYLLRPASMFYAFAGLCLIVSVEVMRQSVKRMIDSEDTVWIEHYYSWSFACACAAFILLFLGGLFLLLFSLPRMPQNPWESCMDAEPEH
The assay is described as follows: cell-based or functional assay.

The target of assay [3] is T1, human CACNG1 expressed on cells. Nature of the assay: imaging cell binding, HEK293/hCACNG1. The procedure: (§1) HuSKM were seeded in collagen-coated 96-well plates (Greiner Bio-One #655956) at 8,500 cells/well and grown for 24 hours. The growth media was changed to MyoTonic Differentiation Media (Cook Myosite Cat #MD-5555) and replaced every 2 days. Myotubes were assayed after 6 days of differentiation. C2C12 mouse myoblasts were maintained in DMEM with 10% FBS and 1% penicillin-streptomycin supplement and grown in a 37° C. incubator with 5% CO₂. C2C12 cells were seeded in collagen-coated 96-well plates (Greiner Bio-One #655956) at 10,000 cells/well for the cell binding assay and 5,000 cells/well for the cell killing assay. After 24 hours, growth media was replaced with differentiation media (DMEM with 2% horse serum) and placed in a 37° C. incubator with 7.5% CO₂. C2C12 myotubes were assayed after 3 days of differentiation. HEK293/hCACNG1, HEK293/mCACNG1, and HEK293 cells were seeded at 10,000 cells (cell binding assay) or 2,000 (cell killing assay) per well in 96-well black collagen coated plates (Greiner Bio-One, cat #655956) in complete growth media and grown overnight at 37° C. in 5% CO₂.
(§2) Relative binding of anti-CACNG1 antibodies was assessed across the entire panel of cell lines via imaging analysis. […] After one wash with antibody dilution buffer, samples were fixed in CytoFix (BD Biosciences, Cat #554655) diluted 1:1 in PBS and supplemented with a 1:2000 dilution of Hoechst 33342 (Thermo, Cat #H1399) for 20 minutes on ice. Images were acquired with a 10× objective on the Opera Phenix (Perkin Elmer) and relative fluorescence units (RFU) was determined using Harmony software (Perkin Elmer).

The target of assay [4] is T2, mouse CACNG1 expressed on cells. Nature of the assay: imaging cell binding, HEK293/mCACNG1. The procedure:
as §1, §2

Assay [5] deals with T1, human CACNG1 expressed on cells. Nature of the assay: imaging cell binding, HuSKM myotubes. The procedure: as §1, §2
For assay [6], the target named is T3, nanodisc embedded human CACNG1 expressed with a C-terminal PADRE-Flag-His tag (human, UniProt Q06432 1-222).
T3 construct: Captured on an anti-His Biacore surface; also called human CACNG1 nanodisc; CACNG1 nanodisc; not shown: C-terminal tag
Nature of the assay: SPR, anti-His-captured nanodisc, 25 C. The procedure:
Equilibrium dissociation constants (KD values) for nanodisc embedded human CACNG1 expressed with a C-terminal […] tag (human CACNG1 nanodisc; concentration 0.82 mg/ml) binding to purified anti-CACNG1 antibodies were determined using a real-time surface plasmon resonance biosensor technology with a Biacore T200 instrument. The CM5 Biacore sensor surface was derivatized by amine coupling with a monoclonal mouse anti-His antibody (Cytiva; Marlborough, MA). All Biacore binding studies were performed in a buffer composed of 0.01M HEPES, 0.15M NaCl, 1 mM CaCl₂, 0.5 mM MgCl₂, pH 7.4 (HBS-N++ running buffer). Different concentrations of anti-CACNG1 antibodies (ranging from 300 nM to 12 nM in 5-fold serial dilutions) prepared in HBS-N++ running buffer were injected over the captured human CACNG1 nanodisc at a flow rate of 30 μL/minute. Antibody association was monitored for 2 minutes while dissociation was monitored in HBS-N++ running buffer for 5 minutes. At the end of each cycle, the human CACNG1 nanodisc capture surface was regenerated using three 10 second injections of 10 mM Gly pH1.5. All binding kinetics experiments were performed at 25° C.
The specific SPR-Biacore sensorgrams were obtained by a double referencing procedure. The double referencing was performed by first subtracting the signal of each injection over a reference surface (anti-His) from the signal over the experimental surface (anti-His captured human CACNG1 nanodisc) thereby removing contributions from refractive index changes. In addition, running buffer injections were performed to allow subtraction of the signal changes resulting from the dissociation of captured antibodies from the coupled anti-His surface. Kinetic association (kₐ) and dissociation ([…]) rate constants were determined by fitting the real-time sensorgrams to a 1:1 binding model using Scrubber v2.0c curve fitting software. Binding dissociation equilibrium constants (KD) and dissociative half-lives (t %) were calculated from the kinetic rate constants as: […]
A general note: Surface plasmon resonance follows binding to a sensor surface in real time, without labels.

For assay [7], the target named is T2, mouse CACNG1 expressed on cells. Nature of the assay: imaging cell binding, C2C12 mouse myotubes. The procedure:
as §1, §2

T3 sequence (Q06432 whole entry): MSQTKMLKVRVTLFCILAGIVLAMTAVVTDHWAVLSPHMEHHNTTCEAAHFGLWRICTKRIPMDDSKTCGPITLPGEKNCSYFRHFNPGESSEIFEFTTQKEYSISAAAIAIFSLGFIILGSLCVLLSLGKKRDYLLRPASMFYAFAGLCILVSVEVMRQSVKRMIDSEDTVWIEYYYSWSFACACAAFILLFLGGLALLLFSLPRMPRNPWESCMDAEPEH
T1 sequence (Q06432 whole entry): as above

B1: REGN10717 (antibody, human IgG4 S228P, kappa)
heavy: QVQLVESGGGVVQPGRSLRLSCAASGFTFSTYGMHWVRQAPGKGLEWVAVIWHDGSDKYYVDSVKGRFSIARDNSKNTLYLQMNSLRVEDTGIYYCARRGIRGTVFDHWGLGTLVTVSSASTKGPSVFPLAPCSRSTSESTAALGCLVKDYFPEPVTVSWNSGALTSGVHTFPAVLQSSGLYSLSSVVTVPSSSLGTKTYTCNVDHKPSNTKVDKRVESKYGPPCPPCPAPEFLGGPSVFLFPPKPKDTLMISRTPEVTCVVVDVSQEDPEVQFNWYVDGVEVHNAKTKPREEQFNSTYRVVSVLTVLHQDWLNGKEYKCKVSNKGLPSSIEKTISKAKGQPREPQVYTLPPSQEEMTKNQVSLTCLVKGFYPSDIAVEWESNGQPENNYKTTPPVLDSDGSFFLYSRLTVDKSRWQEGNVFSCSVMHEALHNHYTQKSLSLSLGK
light: DIQMTQSPSTLSASVGDRVTLTCRASQSISNKLAWYQQKPGKAPNLLIYKASNLESGVPSRFSGSGSGTEFTLTISSLQPDDFATYYCQQYNSYSWTFGQGTKVEIKRTVAAPSVFIFPPSDEQLKSGTASVVCLLNNFYPREAKVQWKVDNALQSGNSQESVTEQDSKDSTYSLSSTLTLSKADYEKHKVYACEVTHQGLSSPVTKSFNRGEC
notes: hIgG4
In general, EC50 refers to the concentration needed to bring the measured effect to its halfway point. The Kd is the constant that tells how readily two partners part at equilibrium. The low end stands for higher affinity, the high end for lower affinity. A word on the koff: it is a measure of how fast the partners let go of each other. A low value points to a long-lived complex. The term kon denotes the rate constant with which the complex forms. A low value points to slow association. For B1, in assay [1], the “% KILL, indirect cell killing, HEK293/hCACNG1” value (“% KILL … HEK293/hCACNG1” for short) was 97%; the “% KILL, indirect cell killing, HuSKM” value amounted to 99.6%; the “EC50/IC50, indirect cell killing, HEK293/hCACNG1” value (“EC50/IC50 … HEK293/hCACNG1” below) came to 0.806 pM; the “EC50/IC50, indirect cell killing, HuSKM” value is 36.4 pM. Besides, in assay [2], the “% KILL, indirect cell killing, C2C12” value was 99.8%; the “% KILL, indirect cell killing, HEK293/mCACNG1” value (from here on “% KILL … HEK293/mCACNG1”) amounted to 96%; the “EC50/IC50, indirect cell killing, C2C12” value turned out to be 3.56 pM; the “EC50/IC50, indirect cell killing, HEK293/mCACNG1” value (“EC50/IC50 … HEK293/mCACNG1” below) was determined as 1.18 pM. Besides, in assay [3], the EC50 is > 100000 pM and the S/N is 77.4 fold. For the same molecule, in assay [4], the EC50 was > 100000 pM and the S/N came to 23.6 fold. Further, in assay [5], the EC50 came out at 69000 pM and the S/N was 292 fold. In assay [6], the affinity, expressed as Kd, was 104000 pM; the koff was 0.0304 s⁻¹; the kon came out at 294000 M⁻¹ s⁻¹; the “mAb bound at 300 nM” value was found to be 7 RU. In addition, the t1/2 in assay [6] turned out to be 0.4 min. For the same molecule, in assay [7], the concentration giving a half-maximal response (EC50) was > 100000 pM and the S/N came to 4.9 fold.

B2: H4H31265P2 (antibody, human IgG4 S228P, kappa, V domains shown)
VH: QVQLVESGGGVVQPGRSLRLSCTASGFTFRSYGMHWVRQAPGKGLEWVSVIWIDGNNIYYADSVKGRFTISRDNSKNTLYLQMDSLRAEDTAVYYCARRLAITSAAPFDYWGQGTLVTVSS
VL: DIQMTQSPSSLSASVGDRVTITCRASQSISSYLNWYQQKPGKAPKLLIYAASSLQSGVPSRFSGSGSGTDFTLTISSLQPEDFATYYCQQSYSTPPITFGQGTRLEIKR
notes: also called H4H31265P2/REGN5972 (lot H4H31265P2-L1)
Turning to B2, in assay [1], the “% KILL … HEK293/hCACNG1” value was found to be 94.6%; the “% KILL, indirect cell killing, HuSKM” value was found to be 95.6%; the “EC50/IC50 … HEK293/hCACNG1” value was 2.45 pM; the “EC50/IC50, indirect cell killing, HuSKM” value amounted to 560 pM. In assay [2], the “% KILL, indirect cell killing, C2C12” value stood at 3.4%; the “% KILL … HEK293/mCACNG1” value stood at 22.9%; the “EC50/IC50, indirect cell killing, C2C12” value was > 10000 pM; the “EC50/IC50 … HEK293/mCACNG1” value is > 1000 pM. Further, in assay [3], the EC50 stood at 11000 pM and the S/N was 247 fold. The molecule further yielded a S/N in assay [4] of 1.2 fold. In assay [5], this molecule registered an EC50 of 3300 pM and a S/N of 250 fold. Moreover, in assay [6], the Kd was 81000 pM, the koff was 0.0084 s⁻¹, the kon came to 104000 M⁻¹ s⁻¹ and the “mAb bound at 300 nM” value came to 14 RU. In assay [6], this molecule returned a t1/2 of 1.4 min. In assay [7], the S/N is 0.8 fold and the binding result is reported as “no binding (tested: 100 nM highest tested)”.

B3: H2aM31941N (antibody, mouse IgG1, kappa, V domains shown)
VH: QVQLVQSGAEVKKPGASVKVSCKASGYAFTTYGITWVRQAPGQGLEWMGWISAYNGNTNYAEKVQGRFTMTTDTSTNTAYMELRSLRSDDTAVYFCARKGHYGSGTYYNPFGFDFWGQGTMVTVSS
VL: EIMLMQSPGTLSLSPGERATLSCRASQSVSSSYLAWYQQKPGQAPRLLIYGASSRATDIPDRFSGSGSGTDFTLTISRLEPEDFAVYFCQQYYGSPWTFGQGTKVEIKR
notes: Both names are treated as one molecule; also called H1M31941N; lot H1M31941N-L1
B3: in assay [1], the “% KILL … HEK293/hCACNG1” value was found to be 95.4%; the “% KILL, indirect cell killing, HuSKM” value was 91.2%; the “EC50/IC50 … HEK293/hCACNG1” value was determined as 2.17 pM; the “EC50/IC50, indirect cell killing, HuSKM” value worked out at 112 pM. For the same molecule, in assay [2], the “% KILL, indirect cell killing, C2C12” value amounted to 0.4%; the “% KILL … HEK293/mCACNG1” value worked out at 4.9%; the “EC50/IC50, indirect cell killing, C2C12” value is > 10000 pM; the “EC50/IC50 … HEK293/mCACNG1” value is > 1000 pM. Besides, in assay [3], the EC50 worked out at 210 pM and the S/N was determined as 51.2 fold. The S/N in assay [4] worked out at 1.4 fold. In assay [5], this molecule returned a 50% effective concentration (EC50) of 130 pM and a S/N of 559 fold. Moreover, in assay [6], the Kd worked out at 1190 pM, the koff worked out at 0.000406 s⁻¹, the kon is 342000 M⁻¹ s⁻¹ and the “mAb bound at 300 nM” value was 19 RU. The molecule further had a t1/2 in assay [6] of 28.4 min. Further, in assay [7], the S/N is 1.2 fold and the binding result is listed as “no binding (tested: 100 nM highest tested)”.
